# Test results taken from patent US12281155 (INSTITUT PASTEUR, dated 2025).
# Residue numbers refer to the chain shown, from its start.
# B1: SPK002M A3 antibody (antibody, human IgG1, kappa, V domains shown)
# VH: EVQLVESGGGLIQPGGSLRLSCAASTITVTSNYMSWVRQAPGKGLEWVSVIYPGGSTFYADSVKGRFTISADNSKNTLYLQMNSLRAEDTAVYYCARDLVVYGMDVWGQGTTVTVSS
# VL: EIVLTQSPGTLSLSPGERATLSCRASQSVSSSYLAWYQQKPGQAPRLLIYGASSRATGIPGRFSGSGSGTDFTLTISRLEPEDFAVYYCQQGVTFGGGTKVEIKR
# B2: SPK002M A1 antibody (antibody, human IgG1, kappa, V domains shown)
# VH: B1 VH
# VL: B1 VL with S28G, V29F
# B3: SPK002M A2 antibody (antibody, human IgG1, kappa, V domains shown)
# VH: B1 VH
# VL: B1 VL with S28G
# B4: SPK002 antibody (parental version Cv2.3194 described in WO 2022/228827) (antibody, V domains shown)
# VH: EVQLVESGGGLIQPGGSLRLSCAASGITVTSNYMSWVRQAPGKGLEWVSVIYPGGSTFYADSVKGRFTISRDNSKNTLYLQMNSLRAEDTAVYYCARDLVVYGMDVWGQGTTVTVS
# VL: EIVLTQSPGTLSLSPGERATLSCRASQSVSSSYLAWYQQKPGQAPRLLIYGASSRATGIPGRFSGSGSGTDFTLTISRLEPEDFAIYYCQQGVTFGGGTKVEIK
# B5: SPK002M A6 antibody (antibody, human IgG1, kappa, V domains shown)
# VH: B1 VH with T26G
# VL: B1 VL with V86I
# Target: T1, recombinant SARS-CoV-2 Spike RBD domain, Delta variant (SARS-CoV-2)
# T1 construct: also called RBD Delta variant
# Assay: ELISA on coated RBD
row,Binder,Binding AUC
1,B1,31
2,B2,31
3,B3,31

# Target: T2, recombinant SARS-CoV-2 Spike RBD domain, BA.2 variant (SARS-CoV-2)
# T2 construct: also called RBD BA.2. variant
# Assay: ELISA on coated RBD
row,Binder,Binding AUC
1,B1,32
2,B2,33
3,B3,32

# Target: T3, recombinant SARS-CoV-2 Spike RBD domain, BA.2.75.2 variant (SARS-CoV-2)
# T3 construct: also called RBD BA.2.75.2 variant
# Assay: ELISA on coated RBD
row,Binder,Binding AUC
1,B1,34
2,B2,34
3,B3,34

# Target: T4, recombinant SARS-CoV-2 Spike RBD domain, BA.4/5 variant (SARS-CoV-2)
# T4 construct: also called RBD BA.4/5 variant
# Assay: ELISA on coated RBD
row,Binder,Binding AUC
1,B1,30
2,B2,31
3,B3,30

# Target: T5, recombinant SARS-CoV-2 Spike RBD domain, BQ.1.1 variant (SARS-CoV-2)
# T5 construct: also called RBD BQ.1.1. variant
# Assay: ELISA on coated RBD
row,Binder,Binding AUC
1,B1,30
2,B2,30
3,B3,30

# Target: T6, recombinant SARS-CoV-2 Spike RBD domain, XBB.1.5 variant (SARS-CoV-2)
# T6 construct: also called RBD XBB.1.5 variant
# Assay: ELISA on coated RBD
row,Binder,Binding AUC
1,B1,35
2,B2,35
3,B3,36

# Target: T7, recombinant SARS-CoV-2 Spike RBD domain, XBB.1.16 variant (SARS-CoV-2)
# T7 construct: also called RBD XBB.1.16 variant
# Assay: ELISA on coated RBD
row,Binder,Binding AUC
1,B1,31
2,B2,30
3,B3,31

# Target: T8, recombinant SARS-CoV-2 Spike RBD domain, EG.5 variant (SARS-CoV-2)
# T8 construct: also called RBD EG.5.1 variant
# Assay: ELISA on coated RBD
row,Binder,Binding AUC
1,B1,34
2,B2,35
3,B3,35

# Target: T9, recombinant SARS-CoV-2 Spike RBD domain, BA.2.86 variant (SARS-CoV-2)
# T9 construct: also called RBD BA.2.86 variant
# Assay: ELISA on coated RBD
row,Binder,Binding AUC
1,B1,38
2,B2,37
3,B3,38

# Target: T10, recombinant SARS-CoV-2 Spike RBD domain, JN-1 variant (SARS-CoV-2)
# T10 construct: also called RBD JN-1 variant
# Assay: ELISA on coated RBD
row,Binder,Binding AUC
1,B1,26
2,B2,39
3,B3,37

# Target: Spike protein of SARS-CoV-2 strain D614G (hCoV-19/France/GE1973/2020) (SARS-CoV-2, UniProt P0DTC2 14-1273)
# Assay: cell-based or functional assay
row,Binder,"IC50, S-Fuse neutralization of live virus"
1,B4,0.09 µg/mL
2,B1,0.11 µg/mL
3,B2,0.08 µg/mL
4,B5,0.07 µg/mL
5,B3,0.1 µg/mL

# Target: Spike protein of SARS-CoV-2 strain XBB.1.5 (GISAID EPI_ISL_16353849) (SARS-CoV-2)
# Assay: cell-based or functional assay
row,Binder,"IC50, S-Fuse neutralization of live virus"
1,B4,216 µg/mL
2,B1,0.12 µg/mL
3,B2,0.07 µg/mL
4,B5,0.36 µg/mL
5,B3,0.1 µg/mL

# Target: Spike protein of SARS-CoV-2 strain XBB.1.16 (hCoV-19/France/GES-IPP7712/2023) (SARS-CoV-2)
# Assay: cell-based or functional assay
row,Binder,"IC50, S-Fuse neutralization of live virus"
1,B4,156 µg/mL
2,B1,0.36 µg/mL
3,B2,0.17 µg/mL
4,B5,1.34 µg/mL
5,B3,0.33 µg/mL

# Target: Spike protein of SARS-CoV-2 strain BA.2.86 (hCoV-19/France/IDF-IPP17625/2023) (SARS-CoV-2)
# Assay: cell-based or functional assay
row,Binder,"IC50, S-Fuse neutralization of live virus"
1,B4,100 µg/mL
2,B1,0.05 µg/mL
3,B2,0.02 µg/mL
4,B5,0.63 µg/mL
5,B3,0.05 µg/mL

# Target: Spike protein of SARS-CoV-2 strain EG.5.1 (hCoV-19/France/GES-IPP15954/2023) (SARS-CoV-2)
# Assay: cell-based or functional assay
row,Binder,"IC50, S-Fuse neutralization of live virus"
1,B4,100 µg/mL
2,B1,5.92 µg/mL
3,B2,0.15 µg/mL
4,B5,21.1 µg/mL
5,B3,1.65 µg/mL

# Target: Spike protein of SARS-CoV-2 strain JN.1 (hCoV-19/France/HDF-IPP21391/2023) (SARS-CoV-2)
# Assay: cell-based or functional assay
row,Binder,"IC50, S-Fuse neutralization of live virus"
1,B4,100 µg/mL
2,B1,76.3 µg/mL
3,B2,1.28 µg/mL
4,B5,100 µg/mL
5,B3,25.3 µg/mL

# Target: T1, recombinant SARS-CoV-2 Spike RBD …
# Assay: competition ELISA, blocking of RBD binding to ACE2 ectodomain
row,Binder,Blocking %
1,B1,95%
2,B2,94%
3,B3,95%

# Target: T2, recombinant SARS-CoV-2 Spike RBD …
# Assay: as above
row,Binder,Blocking %
1,B1,94%
2,B2,95%
3,B3,94%

# Target: T3, recombinant SARS-CoV-2 Spike RBD …
# Assay: as above
row,Binder,Blocking %
1,B1,96%
2,B2,96%
3,B3,96%

# Target: T4, recombinant SARS-CoV-2 Spike RBD …
# Assay: as above
row,Binder,Blocking %
1,B1,96%
2,B2,97%
3,B3,97%

# Target: T5, recombinant SARS-CoV-2 Spike RBD …
# Assay: as above
row,Binder,Blocking %
1,B1,96%
2,B2,97%
3,B3,97%

# Target: T6, recombinant SARS-CoV-2 Spike RBD …
# Assay: as above
row,Binder,Blocking %
1,B1,95%
2,B2,97%
3,B3,96%

# Target: T7, recombinant SARS-CoV-2 Spike RBD …
# Assay: as above
row,Binder,Blocking %
1,B1,95%
2,B2,97%
3,B3,96%

# Target: T8, recombinant SARS-CoV-2 Spike RBD …
# Assay: as above
row,Binder,Blocking %
1,B1,79%
2,B2,90%
3,B3,88%

# Target: T9, recombinant SARS-CoV-2 Spike RBD …
# Assay: as above
row,Binder,Blocking %
1,B1,85%
2,B2,85%
3,B3,85%

# Target: T10, recombinant SARS-CoV-2 Spike RBD …
# Assay: as above
row,Binder,Blocking %
1,B1,0%
2,B2,71%
3,B3,1%
